According to patent publication US20230380451A1, “MEANS AND METHODS TO DETOXIFY MYCOTOXINS” (priority 2020, published 2023):

What was measured:
[1] = system: translation of firefly luciferase; format: biochemical
Procedure: To determine whether or not the conversion of DON into epi-THS through Akr I-III and the conversion of DON into THS through ADH-Lk, as described herein, leads to a decrease in toxicity, two assays were performed. The in vitro TNT® Quick Coupled Transcription/Translation System (Promega) was used to measure how well the metabolites inhibit protein synthesis and the CeIITox™ Green Cytotoxicity Assay (Promega; […].
For the in vitro transcription/translation assay, 40 μl of the TNT T7 quick master mix were mixed with 2 μl firefly luciferase encoding DNA and with 4 μl metabolites to obtain final concentrations from 0.01 μM-150 μM in the reaction. Reactions lacking metabolites were the reference for maximum luminescence output. Reactions were incubated at 30° C. for 90 min to allow for transcription of luciferase gene and subsequent translation. In an opaque (white) 96-well plate (Greiner Bio One) 100 μl Luciferase reagent where mixed with 4 μl of the reactions and immediately placed into a Synergy HT plate reader (Biotek) to read luminescence with a 2 sec and a 10 sec measurement delay. […].

[2] = DON transformation assay with ADH-Lk; format: biochemical; conditions: for DON / THS [peak area]: 30° C.
Procedure: . All components of the reaction except of isopropanol and NADP+ were mixed on ice and a 0 minutes sample was removed (mix sample 1:1 (v/v) with 100% methanol to stop any reaction). Immediately thereafter, reaction mixtures were transferred to the heating block and the reaction was started by adding NADP+ and IPA. The reaction was allowed to proceed for 22 hours at 30° C. A control reaction with the same set up, but lacking the enzyme was set up in parallel. Samples were removed in regular intervals in order to monitor the progression of the reaction and immediately mixed 1:1 (v/v) with 100% methanol to stop the reaction. They were subsequently analyzed using the HPLC-MS/MS method described in below.
For HPLC-MS/MS analysis, DON and THS were separated on a 150 mm×2.1 mm Phenomenex Kinetex Biphenyl column with a particle size of 2.6 μm. The mobile phase consisted of a mixture of methanol and ultrapure water with 0.1% (v/v) acetic acid. Ions were generated using electro spray ionization (ESI) in negative ionization mode. The quantification is done using a QTrap and/or triple quadrupole mass detector. […].

Molecule: 8-amino-DON [Akr 8-amino-DON]
- times weaker effect on luminescence output compared to DON [1]: 5-10 times

B1: ADH-Lk: artificial amino acid sequence, variant of a wild type alcohol dehydrogenase (protein)
chain: MTDRLKGKVAIVTGGTHGIGLAIATKFVTEGAKVVITGRRADVGEKAAKSIGGTDVIRFVQHDVSDEAGWGKLFDTTEETFGPVTTLVNNAGIGYRKSVEDTTTEEWRKLLSVNLDGVFFGTRLGIQRMKCKGLGASIINMSSILGQVGDPATGAYSASKGAVRIMSKSAALLCALKDYDVRVNTVHPGPIKTPLMDDMPGAEEMMSQRTKTPMGHIGEPNDIAWVCVYLASDESKFATGAEFVVDGGYTAQ
modifications: ADH-Lk
- DON ([2]; time 0 h): 399.9 µg/L
- DON ([2]; time 3.5 h): 387.1 µg/L
- THS [peak area] ([2]; time 3.5 h): 7.88E+03
- DON ([2]; time 22 h): 296.6 µg/L
- THS [peak area] ([2]; time 22 h): 1.13E+05
- production of THS from DON ([2]; presence of enzyme in the reaction): leads to the production of THS from DON
